The supplement of paper PMC10126150
± gives the standard deviation of the averaged measurements.

System: ATP
Test: switch fluorescence ratio, 500 uM ATP over buffer (Cy3 cluster intensity, sum of 5 cycles each) (fold (ratio)); higher = stronger signal-on switching upon ATP binding; sequences stand for … in TCGTCGGCAGCGTCAGATGTGTATAAGAGACAGTTTTTTTTTTTTTTTTTTTTTTTTT…TC
Conditions: aptamer strand: ATP DNA aptamer (quencher-CACCTGGGGGAGTATTGCGGAGGAAGG + anchor), 100 nM annealed; ATP concentration: 500 uM
Method in brief: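 Switching-strand clusters labelled with Cy3 on a modified Illumina MiSeq flow-cell were annealed to 100 nM quencher-labelled ATP aptamer, imaged in selection buffer, and re-imaged after 15 min with 500 uM ATP at 22 °C. This was done over five cycles with NaOH stripping and re-annealing in between. The fluorescence ratio is summed target-cycle over summed buffer-cycle Cy3 intensity per cluster, averaged per switch-domain sequence, excluding clusters outside 100-1000 RFU.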
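Note: ATP exposure 15 min at 22 °C before imaging.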

Sequence | switch fluorescence ratio
AGTGGGAACC | 0.998 ± 0.025
AGTGGGAGTG | 0.983 ± 0.034
AGTGGGGCGC | 1.29 ± 0.4
AGTGGGGGAA | 0.985 ± 0.027
AGTGGGGTAC | 1.03 ± 0.032
AGTGGGTCGG | 0.9824 ± 0.0097
AGTGGTGAGT | 0.977 ± 0.025
AGTGGTGGGT | 1.01 ± 0.035
AGTGGTGTTG | 0.9577 ± 0.0092
AGTGGTTAGT | 1.05 ± 0.027
AGTGGTTGTA | 0.997 ± 0.024
AGTGTAAGTA | 0.996 ± 0.03
AGTGTAGCTT | 1.07 ± 0.19
AGTGTAGGGA | 1.01 ± 0.029
AGTGTAGTCT | 0.961 ± 0.02
AGTGTCCAGT | 1 ± 0.028
AGTGTCGCCT | 0.985 ± 0.019
AGTGTGATAG | 0.995 ± 0.034
AGTGTGGAAT | 0.954 ± 0.011
AGTGTGGGGA | 1.03 ± 0.028
AGTGTGGGGT | 0.979 ± 0.054
AGTGTGGTGG | 0.98944 ± 7.4e-05
AGTGTGTGAA | 0.962 ± 0.01

Sequence | switch fluorescence ratio
AGTGTGTGTG | 1.013 ± 0.0024
AGTGTTACTG | 0.975 ± 0.044
AGTGTTAGAC | 1.012 ± 0.0048
AGTGTTAGTG | 0.997 ± 0.037
AGTTAAAACG | 1.02 ± 0.011
AGTTAAGAT | 1.01 ± 0.022
AGTTAATTGA | 0.9704 ± 0.0093
AGTTACCGGG | 0.998 ± 0.044
AGTTACGGGC | 1.01 ± 0.017
AGTTACGGTG | 1 ± 0.025
AGTTAGCAGA | 0.995 ± 0.026
AGTTAGGGTA | 0.9744 ± 0.0059
AGTTAGTGGA | 0.9924 ± 0.00044
AGTTATCCAT | 1.001 ± 0.0083
AGTTATTTGA | 1 ± 0.031
AGTTATTTGC | 0.997 ± 0.024
AGTTCAAACC | 1.04 ± 0.062
AGTTCATATA | 1.013 ± 0.0011
AGTTCCCCTT | 1.052 ± 0.0024
AGTTCCGGGA | 1.02 ± 0.067
AGTTCCGTTT | 0.994 ± 0.022
AGTTCCTTAG | 1.05 ± 0.043
AGTTCGCTTT | 0.993 ± 0.028

Sequence | switch fluorescence ratio
AGTTCGGATG | 1 ± 0.057
AGTTCTTTGT | 0.985 ± 0.024
AGTTGAAATA | 0.9816 ± 0.0066
AGTTGAATTT | 0.9885 ± 0.0016
AGTTGAGAG | 1.03 ± 0.017
AGTTGAGTCT | 0.981 ± 0.067
AGTTGAGTTA | 1 ± 0.011
AGTTGATGGT | 0.96898 ± 0.00096
AGTTGGATGC | 0.965 ± 0.068
AGTTGGCTGA | 0.9967 ± 0.0063
AGTTGGGAGC | 0.991 ± 0.02
AGTTGGGTGG | 1.04 ± 0.026
AGTTGGTAG | 1.02 ± 0.033
AGTTGGTGTT | 0.958 ± 0.026
AGTTGTAAAG | 0.985 ± 0.018
AGTTGTCAGT | 0.983 ± 0.028
AGTTGTCCAT | 0.9767 ± 0.0079
AGTTGTGGTA | 1.003 ± 0.01
AGTTGTGTTT | 0.966 ± 0.043
AGTTGTTGG | 0.982 ± 0.011
AGTTTAAAAG | 1.01 ± 0.024
AGTTTACCGG | 1.01 ± 0.022
AGTTTAGATG | 0.968 ± 0.02

Sequence | switch fluorescence ratio
AGTTTAGGAC | 0.985 ± 0.031
AGTTTATTGG | 0.999 ± 0.0086
AGTTTCCTTT | 0.978 ± 0.032
AGTTTCGGGT | 0.9636 ± 0.0082
AGTTTCGGTA | 0.977 ± 0.018
AGTTTCTTAT | 0.995 ± 0.028
AGTTTCTTGT | 0.987 ± 0.03
AGTTTGAAAT | 1.01 ± 0.03
AGTTTGAGTT | 1.02 ± 0.052
AGTTTGATG | 0.986 ± 0.041
AGTTTGGGC | 0.9604 ± 0.0015
AGTTTGGTGG | 0.942 ± 0.067
AGTTTGTCCC | 1.02 ± 0.0057
AGTTTGTGAC | 0.989 ± 0.029
AGTTTGTGTC | 0.965 ± 0.12
AGTTTGTTTT | 0.966 ± 0.049
AGTTTTAGAT | 1 ± 0.044
AGTTTTATTG | 0.993 ± 0.026
AGTTTTCATT | 1 ± 0.049
AGTTTTCTTC | 0.962 ± 0.041
AGTTTTGACC | 1.03 ± 0.059
AGTTTTGGAG | 1 ± 0.015
AGTTTTGGTA | 1.02 ± 0.064

Sequence | switch fluorescence ratio
AGTTTTGGTG | 0.985 ± 0.01
AGTTTTGTGT | 0.972 ± 0.0098
AGTTTTTTTG | 0.99 ± 0.017
ATAAAAAACT | 0.984 ± 0.01
ATAAAAAATA | 1 ± 0.025
ATAAAAATAT | 1.01 ± 0.035
ATAAAAATGG | 1.004 ± 0.0075
ATAAAAATTT | 1 ± 0.024
ATAAAAGGAT | 0.973 ± 0.014
ATAAAATAAT | 0.977 ± 0.048
ATAAACAAAG | 0.959 ± 0.015
ATAAACCTTA | 1.29 ± 0.28
ATAAAGAATG | 1.01 ± 0.05
ATAAAGCTCT | 1.01 ± 0.019
ATAAAGGGGA | 0.984 ± 0.038
ATAAATTTGC | 0.968 ± 0.045
ATAACAGAGG | 1.04 ± 0.013
ATAACATGAC | 1.21 ± 0.0044
ATAACGGAGT | 0.9902 ± 0.0087
ATAACGTCGG | 0.9867 ± 0.0082
ATAACGTTGA | 0.99 ± 0.017
ATAAGATTGT | 0.963 ± 0.058
ATAAGCTTCT | 1.09 ± 0.073

Sequence | switch fluorescence ratio
ATAAGGGAGA | 1 ± 0.037
ATAAGGGCCA | 1.01 ± 0.036
ATAAGGGTAA | 1 ± 0.013
ATAAGTCAAA | 0.99 ± 0.016
ATAAGTGGTG | 0.976 ± 0.036
ATAAGTTCCG | 0.996 ± 0.028
ATAAGTTTTG | 0.978 ± 0.027
ATAATAAGCT | 1.016 ± 0.0073
ATAATAGAAT | 0.993 ± 0.025
ATAATAGAGT | 1.02 ± 0.024
ATAATAGGG | 0.9773 ± 0.0019
ATAATATAGG | 0.99 ± 0.041
ATAATATGTG | 0.997 ± 0.029
ATAATATTTT | 1.031 ± 0.0028
ATAATGGTTG | 1.04 ± 0.043
ATAATTACTT | 1.01 ± 0.018
ATAATTATA | 1.01 ± 0.018
ATAATTTCTG | 0.99 ± 0.016
ATACAAATTT | 0.995 ± 0.047
ATACAAGTAT | 0.995 ± 0.025
ATACACATCC | 1.06 ± 0.061
ATACCGAGGA | 1.04 ± 0.051
ATACGAAGGG | 0.985 ± 0.059

Sequence | switch fluorescence ratio
ATACGGACGG | 1.4 ± 0.073
ATACGGGGGT | 1.005 ± 0.0076
ATACGTTGG | 0.9748 ± 0.0046
ATACGTTTGG | 1.01 ± 0.054
ATACTATGGT | 0.989 ± 0.038
ATACTCAGCC | 1.14 ± 0.041
ATACTGTTGA | 0.973 ± 0.013
ATACTTGAAC | 1.034 ± 0.0012
ATAGAAAACT | 1.4 ± 0.53
ATAGAACGGG | 1.01 ± 0.025
ATAGAACTTT | 0.9968 ± 0.0095
ATAGAATAGA | 0.985 ± 0.02
ATAGACAGTG | 1.02 ± 0.13
ATAGACGTAT | 1.01 ± 0.011
ATAGACGTTA | 1.07 ± 0.049
ATAGAGAGAG | 1.02 ± 0.014
ATAGAGCTTG | 0.997 ± 0.024
ATAGAGGCAC | 1.09 ± 0.099
ATAGAGTTAG | 0.982 ± 0.011
